Source: PMC6524640 (2019)
No end group written: not given here.

Target: calmodulin (Homo sapiens, UniProt P0DP23)
Assay: NMR titration

Row | Binder | Kd
1 | HFGKTGRASDQR (not fully specified) [CEACAM1 long form peptide LFWT] | 760 µM
2 | HFGKTGSSGPLQ (not fully specified) [CEACAM1 short form peptide SFWT] | 1440 µM
